The source of these data is the supplement of paper PMC12042874.

± gives the uncertainty stated by the source.

The data set is described as follows: amyloid nucleation score (Sup35N fusion, yeast selection) (log enrichment); library NNK3; higher = more nucleation; inactive = no reads after selection. The method, boiled down: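 Sup35N was fused to peptides of 20 random codons and expressed in psi-negative yeast, which were induced with 100 μM copper sulfate for 24 hours and then grown on medium lacking adenine and uracil for 7 days at 30°C. Plasmid inserts from input and output were sequenced on Illumina. The nucleation score is the DiMSum log enrichment of output over input reads, centred on the mode score of non-aggregating sequences. Sequences with under 100 input reads were left out, and random libraries had three technical output replicates.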
Consider RPDCEYGSS, for which the amyloid nucleation score result is “inactive”.
In the case of RPFKFMKLFHIMCVVDVYCM, the amyloid nucleation score result was “inactive”.
RPFNHVDISYAKPLDNFWM registered an amyloid nucleation score of -0.582 ± 0.98.
As to RPPMDEICSNFRSRTLNQSK, the amyloid nucleation score entry was “inactive”.
For RQHFRYHGIFAEFGSTFVRS, the amyloid nucleation score entry is “inactive”.
The entry for RQLFWPTPINNFSVVNGILL is “inactive”.
Substance RQTCFIMVSCYPVKNGNSEI yielded an amyloid nucleation score of 1.48 ± 0.15.
With RRARKWLVIDVRVPSLWSMR, the amyloid nucleation score entry is “inactive”.
As for RRFRSLKRPAQNLSDALMSG, the amyloid nucleation score result was “inactive”.
The result for RRNMYLL reads -1.31 ± 2.5; that for RRSCCLVLTIRVFCRICRDE, “inactive”.
As for RRVFHWYKYCV, the amyloid nucleation score entry was “inactive”.
The result for RRWGFCTLVIVCRAGCYVLS reads “inactive”; that for RRWPTPVCFNEG, “inactive”.
Take RRYHHFRRECWLVERRIVVF: the amyloid nucleation score result is “inactive”.
For RSCVCTTESPLSMTGLRRVV, the amyloid nucleation score entry was “inactive”.
Turning to RSDMGSHFHAELLKYEMATM, the amyloid nucleation score entry was “inactive”.
In turn, RSEVAGFHLE displayed an amyloid nucleation score of -0.807 ± 1.1.
The entry for RSEVQHKLVSFLSKLIPRAS is “inactive”.
The result for RSGLVRSRCSRI reads “inactive”.
The entry for RSLDRRSCAMHILRGHQLKT is “inactive”.
Turning to RSLWALSPENRPLGKVS, the amyloid nucleation score entry is “inactive”.
The entry for RSLYMLVNLMYCGTEVRFIC is “inactive”.
The entry for RSNGPLFQVVITYCVSLPLN is “inactive”; for RSNTQGLPQYKC it is “inactive”; for RSRLAGFSNYFCMKCVIAAG it is “inactive”.
For the substance RSSLNDNRYKCNSGSSVYGS, the amyloid nucleation score result was “inactive”.
The result for RSTVLIPWVDNTCTDQSSGW reads 0.25 ± 0.21; that for RSTYTSFRARWKRRANGSGW, “inactive”.
On to RSVKSIDSHMAKESF, for which the amyloid nucleation score entry is “inactive”.
Consider RSVVLIPDLFGNL, for which the amyloid nucleation score result was “inactive”.
The figure for RSYIKGIFCLSAMRFQCSMS is -0.404 ± 0.78.
The result for RSYKRYSSSYLIIWGWVNMC reads “inactive”.
The figure for RSYVTILDAFSWIM is -0.239 ± 0.66; for RTCSQTIDIGVRNWINEQIM it is “inactive”; for RTDLWRIGDVANWIYALP it is “inactive”.
Consider RTEKMGRDTKRYCVPHINFG, for which the amyloid nucleation score entry was “inactive”.
In the case of RTGTNS, the amyloid nucleation score entry was “inactive”.
The result for RTIRFRFIGWWLAIAEDCRG reads “inactive”; that for RTKMLAVRDVHSGYHSTTQC, “inactive”; that for RTNQLREPRANRWEGLAVLK, “inactive”.
With RTPLYAVLWVEGGLLPYLL, the amyloid nucleation score result was “inactive”.
The result for RTTKSNYTVLLDQNIPLSPT reads “inactive”; that for RTWDLDVGVLRLWVLSIG, “inactive”.
RTYYASWENDSMGAVSYCAS: the amyloid nucleation score entry is “inactive”.
RVCFLRINDGR yielded an amyloid nucleation score of 0.06 ± 0.49.
The entry for RVEAPVMPKRRSIHQCSLKK is “inactive”; for RVFRLCIRFSHA it is 0.391 ± 0.23.
The figure for RVFSTFILYGETKFFLVPET is 0.677 ± 0.23.
RVGCVQYQFRRCRGWKSNKA: the amyloid nucleation score result was “inactive”.
The result for RVGSACNRNSLRKESCTPVQ reads “inactive”.
RVIIRNANSILGTPQSDHNQ showed an amyloid nucleation score of 0.706 ± 0.18.
Take RVIRNQSVRTPP: the amyloid nucleation score entry is “inactive”.
The figure for RVMCRFIVRSLYAPDSHSLT is 1.54 ± 0.073; for RVNHGGNLTRAKHERLFHLK it is “inactive”.
The result for RVNRRWDSLS reads “inactive”; that for RVVSSGRGNSHTAATGWLWQ, “inactive”; that for RVYGLFTLQYWYLNLYTKGR, 0.548 ± 0.36.
For the substance RVYLRGRIDFKGTTFGGFEK, the amyloid nucleation score stood at 1.63 ± 0.059.
RWDFTSDSISRILTPLNVAK had an amyloid nucleation score of 0.836 ± 0.13.
The result for RWDNMFLSWRYCWVYAVSFS reads “inactive”.
The result for RWFQRWEIKTNAHLLTTLNM reads “inactive”; that for RWFRTVGKFFGHIFS, 0.039 ± 0.45; that for RWGLYLR, “inactive”.
The result for RWKFYILVIYGVSASTFAQG reads “inactive”.
In the case of RWMLSDGFIMKRRTSFFNDM, the amyloid nucleation score result is “inactive”.
For RWPKIASCFSTHPWSGRYMW, the amyloid nucleation score entry is “inactive”.
For the substance RWWVMLLLVRWKRHQDTAYV, the amyloid nucleation score entry is “inactive”.
The result for RWYWDHVRIDTYVVHSRTWR reads 0.979 ± 0.13; that for RYCNVFVKIVALCGYKGSWS, 2.64 ± 0.06; that for RYCVFSLT, “inactive”.
Consider RYEFS, for which the amyloid nucleation score result was “inactive”.
Take RYGSNTSLVANCAGPRPGLV: the amyloid nucleation score result was “inactive”.
The entry for RYGVWLTCYVRAKLM is “inactive”.
Consider RYHNFLYGLGNPMG, for which the amyloid nucleation score entry is “inactive”.
The entry for RYLGWFLKCTACRDHSEFII is “inactive”.
With RYLSMELSQEYLFLVVSLVW, the amyloid nucleation score entry is “inactive”.
The result for RYLVRCSFWVGKNLV reads 0.722 ± 0.2; that for RYPGVFTTQSA, “inactive”.
In the case of RYPLSDDPLGIVWITYMLAN, the amyloid nucleation score result is “inactive”.
The entry for RYRPHNPDVVN is “inactive”.
In turn, RYRTRRALHVYDEFVFEFKP registered an amyloid nucleation score of -0.057 ± 0.68.
Regarding RYSDHRGIKAVGFAHCFL, the amyloid nucleation score entry is “inactive”.
The figure for RYSVARIRCTTGNVDVYV is -0.281 ± 1.2; for RYVAVCSK it is “inactive”.
Turning to SAARSNPW, the amyloid nucleation score worked out at 0.311 ± 0.31.
Turning to SAIPVWGKMRGFYLFYETHC, the amyloid nucleation score entry is “inactive”.
On to SAIRMPAYDYTWRGLYGDKK, for which the amyloid nucleation score entry was “inactive”.
The result for SAKIL reads 0.118 ± 0.23; that for SALLNRLSVSLYWMYGMSFM, “inactive”; that for SAVRGRCVLYGNRPLIHVRK, “inactive”.
As for SAYFAVY, the amyloid nucleation score result was “inactive”.
Regarding SAYRKTHHSCYNVLYVFMMC, the amyloid nucleation score amounted to 1.49 ± 0.082.
With SAYYYGKY, the amyloid nucleation score entry was “inactive”.
Substance SCARSGTYIAVGIQSCCPRW came in with an amyloid nucleation score of 1.5 ± 0.14.
The result for SCCCDFYTTRKNQRCVHRFR reads “inactive”; that for SCCYAPRQPLWYASEFGVVG, “inactive”.
The entry for SCFAVCHYESRLVYVTYSFL is “inactive”; for SCFVCNF it is 2.86 ± 0.059.
The result for SCGGCLFPDHKCCTSYARWV reads “inactive”; that for SCGLFRLNMDIRVSNKNFWG, 0.991 ± 0.12; that for SCKVTKHGYVKEDFIGLCSY, “inactive”.
On to SCLCVSW, for which the amyloid nucleation score result is “inactive”.
The result for SCLTDKRSCFC reads 0.538 ± 0.34; that for SCLTIGWLNVVSFWI, 1.97 ± 0.082.
Turning to SCNFGANYNLKMIFIYVPWV, the amyloid nucleation score was found to be 1.75 ± 0.08.
The result for SCNVVLRFGAMIYTL reads “inactive”; that for SCSDW, “inactive”; that for SCSGAMTLWFRQPALKHIL, “inactive”.
As to SCSLRYGMTGWPESKTYTAF, the amyloid nucleation score entry is “inactive”.
The result for SCSMHFLVCEDYNRMLALRC reads “inactive”; that for SCVRHPIECLKWMTLTGEVV, “inactive”.
Turning to SCWYETMLFSLCKFKYLGLM, the amyloid nucleation score entry was “inactive”.
SDEKNKNVLGAYRVIMCVVY: the amyloid nucleation score result is “inactive”.
With SDERCLFGVQRYMHVFLRPI, the amyloid nucleation score entry is “inactive”.
Consider SDFPRMNWGFETKCDYSTVR, for which the amyloid nucleation score result was “inactive”.
The result for SDFSVRVLDNWIHNMTGRIG reads “inactive”.
In the case of SDGLLLPRSRNVATVEMGDL, the amyloid nucleation score entry was “inactive”.
The result for SDISRQYICVMYVSRLRG reads “inactive”; that for SDLQVIWFMFFCSTLVRDWI, “inactive”; that for SDMVVKGERGYICILICRLR, “inactive”.
The figure for SDRIDNFAWINFCK is 0.831 ± 0.18; for SDRNSEGLTLF it is “inactive”; for SDVDDKVHKVHQQLVAILHF it is 0.624 ± 0.17.
The entry for SDVYWISLFVATSICCRSGA is “inactive”; for SEDDC it is “inactive”.
As for SEGSNNVSCSI, the amyloid nucleation score entry was “inactive”.
The result for SELRC reads 0.114 ± 0.44.
The result for SEMELDLSFSPPYRGLPIIV reads “inactive”.
The result for SENSRRSLSAYFLQYGLWFW reads “inactive”.
For the substance SESLMYRAKRVSTHYNFMCL, the amyloid nucleation score entry is “inactive”.
